In the RNAGym collection of RNA variant scans (doi:10.7554/elife.80360):

B1: HDV Ribozyme (parent)
chain: GGCCGGCAUGGUCCCAGCCUCCUCGCUGGCGCCGGCUGGGCAACAUUCCGAGGGGACCGUCCCCUCGGUAAUGGCGAAUGGGACCCA

Variants of: B1
Assay: self-cleavage, relative activity (ratio to wild type); higher = more cleavage; co-transcriptional

Variant	self-cleavage
C4A A71U	0.259
C4A A71G	0.151
C4G G53A	0.277
C4G G53C	0.213
C4G U20C	0.0791
C4A G74A	0
C4A G80U	0.048
C4A G80C	0
C4A G80A	0.0519
C4U A56G	0.665
C4U A56U	0.898
C4U C30A	0.133
C4U C30G	0
C4U G59C	0.81
G5A A83C	0.175
G5A A83U	0.0426
C4U U47A	0.739
C3G G17C	0.0941
C4A G59U	0.415
C4U C26A	0.773
C3G G29U	0.0656

Variant	self-cleavage
C4U C66G	0.875
C3U G74A	0.245
C4G G54U	0.464
C4G G54A	0.288
G5A G10A	0.203
G5A G10C	0.308
C4U C21G	0
C4U C21A	0
C4A U9G	0.383
C4A U9A	0.323
C4G C86U	0.44
C3U G31U	0.173
C3G C75U	0.0863
C4A A51U	0.145
C4A A51G	0.502
C3U C63G	0.572
C4G G34U	0.864
C3G G67U	0.626
C4A C22G	0.102
C4A C22U	0.148
C3G C44U	0.156

Variant	self-cleavage
G5A G31U	0.0332
C4G G82A	0.0674
C4G G82C	0
C4A C32A	0.0332
G5A C15U	0.0475
G5A C15G	0.151
C4G G73C	0.0361
C4U C41A	0.434
C4U A83U	0.115
C4G G74A	0.0639
C3G U65C	0.817
C4G C61A	0.35
C4G C61G	0.325
C4A A77G	0.0369
C4A A77U	0
C3G G6A	0.0923
C4A G52C	0.406
C4A G52U	0.213
C4U C63A	0.95
C3G G52U	0.691
C3G G52C	0.658

Variant	self-cleavage
C4G C41G	0.0437
C4A C33G	0
C4A G11C	0.0604
C4A G11A	0.0183
C3U G11U	0.138
C3U G35C	0.49
C4A U37A	0.0332
C4G C64G	0.259
C3U G40C	0.26
G5A C21G	0.0811
G5A C21U	0.163
C3U C22U	0.525
C4U G29C	0.0396
C4U G29A	0
C3U C61G	0.816
C3U A8C	0.269
C4A G81A	0.0468
G5A G17C	0.0594
C4A C24G	0.0573
C4G C21G	0
C3U U20C	0.113
